This note sets out measurements from patent publication US20040038297.

Sequences and labels used below:
T1: complement factor C4, P0C0L4
T1 chain: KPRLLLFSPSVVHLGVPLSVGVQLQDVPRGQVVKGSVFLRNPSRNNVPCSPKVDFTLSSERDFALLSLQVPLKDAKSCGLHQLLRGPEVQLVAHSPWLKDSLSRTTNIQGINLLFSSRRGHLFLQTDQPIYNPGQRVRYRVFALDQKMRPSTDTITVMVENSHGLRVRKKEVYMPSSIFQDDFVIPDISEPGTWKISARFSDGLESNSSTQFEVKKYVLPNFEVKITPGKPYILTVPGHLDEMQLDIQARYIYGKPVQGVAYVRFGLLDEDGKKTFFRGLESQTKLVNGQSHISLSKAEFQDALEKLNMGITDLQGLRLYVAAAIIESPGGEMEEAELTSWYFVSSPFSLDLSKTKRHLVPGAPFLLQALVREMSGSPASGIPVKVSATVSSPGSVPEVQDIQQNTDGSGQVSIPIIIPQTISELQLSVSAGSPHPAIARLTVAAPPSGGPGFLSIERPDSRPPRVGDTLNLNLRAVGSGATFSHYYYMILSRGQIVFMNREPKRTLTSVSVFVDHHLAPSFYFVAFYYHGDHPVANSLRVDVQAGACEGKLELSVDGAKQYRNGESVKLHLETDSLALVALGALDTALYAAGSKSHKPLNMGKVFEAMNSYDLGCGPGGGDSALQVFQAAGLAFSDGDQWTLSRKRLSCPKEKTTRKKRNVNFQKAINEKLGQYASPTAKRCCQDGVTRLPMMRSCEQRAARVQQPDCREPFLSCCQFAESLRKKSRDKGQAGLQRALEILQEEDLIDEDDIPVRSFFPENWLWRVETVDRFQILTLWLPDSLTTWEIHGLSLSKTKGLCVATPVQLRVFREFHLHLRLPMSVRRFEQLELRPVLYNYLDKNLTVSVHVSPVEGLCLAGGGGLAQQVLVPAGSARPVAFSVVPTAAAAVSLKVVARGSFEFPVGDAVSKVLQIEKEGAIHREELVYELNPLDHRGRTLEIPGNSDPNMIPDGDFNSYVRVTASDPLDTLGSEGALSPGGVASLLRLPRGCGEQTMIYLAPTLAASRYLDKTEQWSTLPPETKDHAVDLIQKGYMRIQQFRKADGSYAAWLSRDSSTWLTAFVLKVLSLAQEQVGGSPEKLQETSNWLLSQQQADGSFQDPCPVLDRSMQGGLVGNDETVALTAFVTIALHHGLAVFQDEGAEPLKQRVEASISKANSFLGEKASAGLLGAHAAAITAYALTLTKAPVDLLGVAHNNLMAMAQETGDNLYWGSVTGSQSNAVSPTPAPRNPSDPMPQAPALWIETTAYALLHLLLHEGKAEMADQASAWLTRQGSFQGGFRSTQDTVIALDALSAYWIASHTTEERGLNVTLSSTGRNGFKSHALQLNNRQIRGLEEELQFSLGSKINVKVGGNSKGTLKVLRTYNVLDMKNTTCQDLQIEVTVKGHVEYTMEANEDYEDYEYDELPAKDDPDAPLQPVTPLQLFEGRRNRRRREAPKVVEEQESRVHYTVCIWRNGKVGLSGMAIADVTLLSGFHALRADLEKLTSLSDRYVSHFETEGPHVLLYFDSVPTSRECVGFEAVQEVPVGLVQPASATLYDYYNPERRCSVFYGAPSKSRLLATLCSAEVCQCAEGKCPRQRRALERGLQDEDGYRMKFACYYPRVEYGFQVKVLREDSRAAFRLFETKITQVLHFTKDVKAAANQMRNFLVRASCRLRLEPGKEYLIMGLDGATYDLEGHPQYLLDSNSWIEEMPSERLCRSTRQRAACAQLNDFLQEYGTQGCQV

B1: mannan-binding lectin associated serine protease-2 (MASP-2) (protein)
chain: TPLGPKWPEPVFGRLASPGFPGEYANDQERRWTLTAPPGYRLRLYFTHFDLELSHLCEYDFVKLSSGAKVLATLCGQESTDTERAPGKDTFYSLGSSLDITFRSDYSNEKPFTGFEAFYAAEDIDECQVAPGEAPTCDHHCHNHLGGFYCSCRAGYVLHRNKRTCSALCSGQVFTQRSGELSSPEYPRPYPKLSSCTYSISLEEGFSVILDFVESFDVETHPETLCPYDFLKIQTDREEHGPFCGKTLPHRIETKSNTVTITFVTDESGDHTGWKIHYTSTAHACPYPMAPPNGHVSPVQAKYILKDSFSIFCETGYELLQGHLPLKSFTAVCQKDGSWDRPMPACSIVDCGPPDDLPSGRVEYITGPGVTTYKAVIQYSCEETFYTMKVNDGKYVCEADGFWTSSKGEKSLPVCEPVCGLSARTTGGRIYGGQKAKPGDFPWQVLILGGTTAAGALLYDNWVLTAAHAVYEQKHDASALDIRMGTLKRLSPHYTQAWSEAVFIHEGYTHDAGFDNDIALIKLNNKVVINSNITPICLPRKEAESFMRTDDIGTASGWGLTQRGFLARNLMYVDIPIVDHQKCTAAYEKPPYPRGSVTANMLCAGLESGGKDSCRGDSGGALVFLDSETERWFVGGIVSWGSMNCGEAGQYGVYTKVINYIPWIENIISDF
B2: C1s (protein)
chain: EPTMYGEILSPNYPQAYPSEVEKSWDIEVPEGYGIHLYFTHLDIELSENCAYDSVQIISGDTEEGRLCGQRSSNNPHSPIVEEFQVPYNKLQVIFKSDFSNEERFTGFAAYYVATDINECTDFVDVPCSHFCNNFIGGYFCSCPPEYFLHDDMKNCGVNCSGDVFTALIGEIASPNYPKPYPENSRCEYQIRLEKGFQVVVTLRREDFDVEAADSAGNCLDSLVFVAGDRQFGPYCGHGFPGPLNIETKSNALDIIFQTDLTGQKKGWKLRYHGDPMPCPKEDTPNSVWEPAKAKYVFRDVVQITCLDGFEVVEGRVGATSFYSTCQSNGKWSNSKLKCQPVDCGIPESIENGKVEDPESTLFGSVIRYTCEEPYYYMENGGGGEYHCAGNGSWVNEVLGPELPKCVPVCGVPREPFEEKQRIIGGSDADIKNFPWQVFFDNPWAGGALINEYWVLTAAHVVEGNREPTMYVGSTSVQTSRLAKSKMLTPEHVFIHPGWKLLEVPEGRTNFDNDIALVRLKDPVKMGPTVSPICLPGTSSDYNLMDGDLGLISGWGRTEKRDRAVRLKAARLPVAPLRKCKEVKVEKPTADAEAYVFTPNMICAGGEKGMDSCKGDSGGAFAVQDPNDKTKFYAAGLVSWGPQCGTYGLYTRVKNYVDWIMKTMQENSTPRED
B3: MASP-1 (MBP-associated serine protease) (protein)
chain: HTVELNNMFGQIQSPGYPDSYPSDSEVTWNITVPDGFRIKLYFMHFNLESSYLCEYDYVKVETEDQVLATFCGRETTDTEQTPGQEVVLSPGSFMSITFRSDFSNEERFTGFDAHYMAVDVDECKEREDEELSCDHYCHNYIGGYYCSCRFGYILHTDNRTCRVECSDNLFTQRTGVITSPDFPNPYPKSSECLYTIELEEGFMVNLQFEDIFDIEDHPEVPCPYDYIKIKVGPKVLGPFCGEKAPEPISTQSHSVLILFHSDNSGENRGWRLSYRAAGNECPELQPPVHGKIEPSQAKYFFKDQVLVSCDTGYKVLKDNVEMDTFQIECLKDGTWSNKIPTCKIVDCRAPGELEHGLITFSTRNNLTTYKSEIKYSCQEPYYKMLNNNTGIYTCSAQGVWMNKVLGRSLPTCLPVCGLPKFSRKLMARIFNGRPAQKGTTPWIAMLSHLNGQPFCGGSLLGSSWIVTAAHCLHQSLDPEDPTLRDSDLLSPSDFKIILGKHWRLRSDENEQHLGVKHTTLHPQYDPNTFENDVALVELLESPVLNAFVMPICLPEGPQQEGAMVIVSGWGKQFLQRFPETLMEIEIPIVDHSTCQKAYAPLKKKVTRDMICAGEKEGGKDACAGDSGGPMVTLNRERGQWYLVGTVSWGDDCGKKDRYGVYSYIHHNKDWIQRVTGVRN

The data set deals with T1, complement factor C4, P0C0L4.
For B1, the “C4 deposition on a Western blot incubated with human serum (C4 converting activity)” value is given as “C4 was deposited at a position corresponding to the MASP-2 band”.
Then B2, with “C4 deposition, which could be inhibited by enzyme inhibitors, was observed at a position corresponding to C1r and C1s, which are not separated by the technique employed”.
Turning to B3, the “C4 deposition on a Western blot incubated with human serum (C4 converting activity)” value was “no C4 deposition was observed at positions corresponding to MASP-1”.
